These results are taken from patent US6458930B1, “Aspergillus fumigatus cofilin” (Cytokinetics, Inc., priority 2000, dated 2002).

This test concerns the target T1, preassembled pyrene-actin filaments (Gallus gallus, UniProt P68139).
T1 construct: Extract chicken breast acetone powder (as prepared above) in Buffer A; from tissue; host or cells: chicken breast muscle (actin); E. coli (cofilin, made in house)
In words: pyrene actin assay (fluorescence of preassembled pyrene-actin filaments). Format: biochemical, chicken. The conditions noted are these: addition of stoichiometric amounts of cofilin to preassembled pyrene-actin filaments; binding to actin polymer and enhancing depolymerization combined. An excerpt:
Assays for the interaction of A. fumigatus cofilin and any other cofilin with actin in 384-well plates using a fluorescence as the detection means have been developed. The assays employ pyrene-labeled actin (Pollard (1984) J Cell Biol 99:769-777).
Upon addition of cofilin to filamentous pyrene-actin, two well-characterized biochemical activities can be monitored. First, cofilin binds to the filaments and partially quenches the pyrene fluorescence. Second, it induces filament disassembly, further decreasing pyrene fluorescence. The decrease in fluorescence that results when cofilin is added to filamentous actin is monitored (FIG. 3). An inhibitor of the interaction of cofilin with pyrene-actin will result in an increase in fluorescence.
This very robust signal can be exploited to an assay for modulators of cofilin. Chicken skeletal actin was used because it can be purified in quantities needed for high throughput screening; it is 90% identical in amino acid sequence to fungal actin, and it can assemble into copolymers with fungal actin. Pyrene-labeled skeletal actin has been prepared and characterized as to its polymerization properties as well as for its interaction with fungal cofilin.

B1: A. fumigatus cofilin: protein of A. fumigatus capable of binding actin, amino acid sequence SEQ ID NO:2, expressed in E. coli (protein, listed as Aspergillus fumigatus)
chain: MALASGVSIADECITAFNDFRMSGNKANKTKFIIFKIADNKKEVVIDEVSQEEDYEVFRSRLEATKDSKGNPAPRYAVYDVEYDLGGGEGKRSKIVFISWVPSDTPTLWSMIYASTRENLKNALNIHTSIHADDKGDIEWKTVLAEASGGKAGK
B1: the “reduction in fluorescence intensity” value is listed as 3-5 fold.
